Molecular target: human HER2 (ErbB2) (human) (UniProt P04626)
Experiment: cell-based or functional assay

inhibition of SK-BR-3 relative cell proliferation (crystal violet, 72 h, 5 ug/ml antibody): 56%
maximum inhibition of cell proliferation in SK-BR-3 cells: 66%
Substance: murine monoclonal antibody 4D5 (ATCC CRL 10463)

— patent EP2283866A2
